From patent US20140193378A1 (UNIVERSITY OF MIAMI, published 2014)
Non-standard residues stand in square brackets, D forms with d. No end group written: not given here. *: point of attachment. Phe(F5) = N[C@@H](Cc1c(F)c(F)c(F)c(F)c1F)C(=O)O; Desaminotyrosyl = O=C(CCc1ccc(O)cc1)*; NMeY = CN[C@@H](Cc1ccc(O)cc1)C(=O)O; Agmatine = N=C(N)NCCCCN*; NMeA = CN[C@@H](C)C(=O)O; Nle = CCCC[C@H](N)C(=O)O; Orn = NCCC[C@H](N)C(=O)O; Abu = CC[C@H](N)C(=O)O; Ava = NCCCCC(=O)O; GABA = NCCCC(=O)O

T1: human GHRH receptor (human pituitary membrane homogenates) (human, UniProt Q02643 23-423)
T1 construct: whole, on cells; Native receptor in human pituitary membrane homogenates, not on intact cells; also called hGHRH receptor
T1 sequence (looked up): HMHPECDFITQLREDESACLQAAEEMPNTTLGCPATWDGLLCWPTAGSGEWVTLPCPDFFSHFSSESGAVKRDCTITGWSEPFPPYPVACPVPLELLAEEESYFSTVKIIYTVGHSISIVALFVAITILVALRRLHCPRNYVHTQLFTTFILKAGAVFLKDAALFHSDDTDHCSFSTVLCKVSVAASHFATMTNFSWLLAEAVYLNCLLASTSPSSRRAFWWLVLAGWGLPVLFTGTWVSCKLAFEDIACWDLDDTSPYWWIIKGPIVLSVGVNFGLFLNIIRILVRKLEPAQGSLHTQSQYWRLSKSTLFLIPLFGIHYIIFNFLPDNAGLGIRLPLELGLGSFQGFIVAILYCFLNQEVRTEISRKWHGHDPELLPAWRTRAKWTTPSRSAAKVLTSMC


Each binder was assayed against T1, human GHRH receptor (human pituitary …) (assay: radioligand competition vs 125I-JV-1-42 (0.2 nM), human pituitary membranes).
Source text: Normal human pituitaries were purchased from the National Hormone and Peptide Program (A. F. Parlow, Los Angeles, County Harbor-UCLA Medical Center, Torrance, Calif.).

Binder | Relative affinity (Binding potency) vs JI-38 [fold]
[NMeY][dA]DAIFTQSYR[Orn]VL[Abu]QLSAR[Orn]LLQDI[Nle]DR[Ava]-NH2 (N-terminus assumed; SMILES CCCC[C@H](NC(=O)[C@@H](NC(=O)[C@H](CC(=O)O)NC(=O)[C@H](CCC(N)=O)NC(=O)[C@H](CC(C)C)NC(=O)[C@H](CC(C)C)NC(=O)[C@H](CCCN)NC(=O)[C@H](CCCNC(=N)N)NC(=O)[C@H](C)NC(=O)[C@H](CO)NC(=O)[C@H](CC(C)C)NC(=O)[C@H](CCC(N)=O)NC(=O)[C@H](CC)NC(=O)[C@H](CC(C)C)NC(=O)[C@@H](NC(=O)[C@H](CCCN)NC(=O)[C@H](CCCNC(=N)N)NC(=O)[C@H](Cc1ccc(O)cc1)NC(=O)[C@H](CO)NC(=O)[C@H](CCC(N)=O)NC(=O)[C@@H](NC(=O)[C@H](Cc1ccccc1)NC(=O)[C@@H](NC(=O)[C@H](C)NC(=O)[C@H](CC(=O)O)NC(=O)[C@@H](C)NC(=O)[C@H](Cc1ccc(O)cc1)NC)[C@@H](C)CC)[C@@H](C)O)C(C)C)[C@@H](C)CC)C(=O)N[C@@H](CC(=O)O)C(=O)N[C@@H](CCCNC(=N)N)C(=O)NCCCCC(N)=O, also called Peptide 22326) [P-22326 [N-Me-Tyr^1, D-Ala^2, Gln^8, Orn^12, Abu^15, Orn^21, Nle^27, Asp^28, Apa^30]hGHRH(1-30)NH2] | 6.12
[Desaminotyrosyl][dA]DAIFT[NMeA]SYR[Orn]VL[Abu]QLSAR[Orn]LLQDI[Nle]D[Agmatine] (SMILES CCCC[C@H](NC(=O)[C@@H](NC(=O)[C@H](CC(=O)O)NC(=O)[C@H](CCC(N)=O)NC(=O)[C@H](CC(C)C)NC(=O)[C@H](CC(C)C)NC(=O)[C@H](CCCN)NC(=O)[C@H](CCCNC(=N)N)NC(=O)[C@H](C)NC(=O)[C@H](CO)NC(=O)[C@H](CC(C)C)NC(=O)[C@H](CCC(N)=O)NC(=O)[C@H](CC)NC(=O)[C@H](CC(C)C)NC(=O)[C@@H](NC(=O)[C@H](CCCN)NC(=O)[C@H](CCCNC(=N)N)NC(=O)[C@H](Cc1ccc(O)cc1)NC(=O)[C@H](CO)NC(=O)[C@H](C)N(C)C(=O)[C@@H](NC(=O)[C@H](Cc1ccccc1)NC(=O)[C@@H](NC(=O)[C@H](C)NC(=O)[C@H](CC(=O)O)NC(=O)[C@@H](C)NC(=O)CCc1ccc(O)cc1)[C@@H](C)CC)[C@@H](C)O)C(C)C)[C@@H](C)CC)C(=O)N[C@@H](CC(=O)O)C(=O)NCCCCNC(=N)N, also called Peptide 20357) [P-20357 [Dat^1, D-Ala^2, N-Me-Ala^8, Orn^12, Abu^15, Orn^21, Nle^27, Asp^28, Agm^29]hGHRH(1-29)NH2] | 5.06
[NMeY][dA]DAI[Phe(F5)]TNSYR[Orn]VL[Abu]QLSAR[Orn]LLQDI[Nle]DR-NHMe [P-27404 [N-Me-Tyr^1, D-Ala^2, Fpa5^6, Orn^12, Abu^15, Orn^21, Nle^27, Asp^28]hGHRH(1-29)NH-CH3] | 5
[NMeY][dA]DAIFTTSYR[Orn]VL[Abu]QLSAR[Orn]LLQDI[Nle]DR-NHMe (also called Peptide 27410) [P-27410 [N-Me-Tyr^1, D-Ala^2, Thr^8, Orn^12, Abu^15, Orn^21, Nle^27, Asp^28]hGHRH(1-29)NH-CH3] | 5.24
[NMeY][dA]DAIFTNSYR[Orn]VL[Abu]QLSAR[Orn]LLQDI[Nle]D[Agmatine] (also called Peptide 20367) [P-20367 [N-Me-Tyr^1, D-Ala^2, Orn^12, Abu^15, Orn^21, Nle^27, Asp^28, Agm^29]hGHRH(1-29)NH2] | 2.56
[NMeY][dA]DAIFTNSYR[Orn]VL[Abu]QLSAR[Orn]LLQDI[Nle]DR-NHEt (also called Peptide 28421) [P-28421 [N-Me-Tyr^1, D-Ala^2, Orn^12, Abu^15, Orn^21, Nle^27, Asp^28]hGHRH(1-29)NH-CH2-CH3] | 2.96
[NMeY][dA]DAIFTNSYR[Orn]VL[Abu]QLSAR[Orn]LLQDI[Nle]DR-NHMe (also called Peptide 27409; MR-409) [P-27409 [N-Me-Tyr^1, D-Ala^2, Orn^12, Abu^15, Orn^21, Nle^27, Asp^28]hGHRH(1-29)NH-CH3] | 4.1

Further lines, results first:

Relative affinity (Binding potency) vs JI-38 [fold] | Binder
7.91 | [Desaminotyrosyl][dA]DAIFTQSYR[Orn]VL[Abu]QLSAR[Orn]LLQDI[Nle]DR-NHMe (SMILES CCCC[C@H](NC(=O)[C@@H](NC(=O)[C@H](CC(=O)O)NC(=O)[C@H](CCC(N)=O)NC(=O)[C@H](CC(C)C)NC(=O)[C@H](CC(C)C)NC(=O)[C@H](CCCN)NC(=O)[C@H](CCCNC(=N)N)NC(=O)[C@H](C)NC(=O)[C@H](CO)NC(=O)[C@H](CC(C)C)NC(=O)[C@H](CCC(N)=O)NC(=O)[C@H](CC)NC(=O)[C@H](CC(C)C)NC(=O)[C@@H](NC(=O)[C@H](CCCN)NC(=O)[C@H](CCCNC(=N)N)NC(=O)[C@H](Cc1ccc(O)cc1)NC(=O)[C@H](CO)NC(=O)[C@H](CCC(N)=O)NC(=O)[C@@H](NC(=O)[C@H](Cc1ccccc1)NC(=O)[C@@H](NC(=O)[C@H](C)NC(=O)[C@H](CC(=O)O)NC(=O)[C@@H](C)NC(=O)CCc1ccc(O)cc1)[C@@H](C)CC)[C@@H](C)O)C(C)C)[C@@H](C)CC)C(=O)N[C@@H](CC(=O)O)C(=O)N[C@@H](CCCNC(=N)N)C(=O)NC, also called Peptide 27408) [P-27408 [Dat^1, D-Ala^2, Gln^8, Orn^12, Abu^15, Orn^21, Nle^27, Asp^28]hGHRH(1-29)NH-CH3]
1.59 | [Desaminotyrosyl][dA]DAIFTQSYR[Orn]VL[Abu]QLSAR[Orn]LLQDI[Nle]D[dR]-NHMe (SMILES CCCC[C@H](NC(=O)[C@@H](NC(=O)[C@H](CC(=O)O)NC(=O)[C@H](CCC(N)=O)NC(=O)[C@H](CC(C)C)NC(=O)[C@H](CC(C)C)NC(=O)[C@H](CCCN)NC(=O)[C@H](CCCNC(=N)N)NC(=O)[C@H](C)NC(=O)[C@H](CO)NC(=O)[C@H](CC(C)C)NC(=O)[C@H](CCC(N)=O)NC(=O)[C@H](CC)NC(=O)[C@H](CC(C)C)NC(=O)[C@@H](NC(=O)[C@H](CCCN)NC(=O)[C@H](CCCNC(=N)N)NC(=O)[C@H](Cc1ccc(O)cc1)NC(=O)[C@H](CO)NC(=O)[C@H](CCC(N)=O)NC(=O)[C@@H](NC(=O)[C@H](Cc1ccccc1)NC(=O)[C@@H](NC(=O)[C@H](C)NC(=O)[C@H](CC(=O)O)NC(=O)[C@@H](C)NC(=O)CCc1ccc(O)cc1)[C@@H](C)CC)[C@@H](C)O)C(C)C)[C@@H](C)CC)C(=O)N[C@@H](CC(=O)O)C(=O)N[C@H](CCCNC(=N)N)C(=O)NC) [P-27401 [Dat^1, D-Ala^2, Gln^8, Orn^12, Abu^15, Orn^21, Nle^27, Asp^28, D-Arg^29]hGHRH(1-29)NH-CH3]
27.2 | [NMeY][dA]DAIFTQSYR[Orn]VL[Abu]QLSAR[Orn]LLQDI[Nle]DR-NHMe [P-27403 [N-Me-Tyr^1, D-Ala^2, Gln^8, Orn^12, Abu^15, Orn^21, Nle^27, Asp^28]hGHRH(1-29)NH-CH3]
4.07 | [NMeY][dA]DAIFTNSYR[Orn]VL[Abu]QLSAR[Orn]LLQDI[Nle]SR[GABA]-NH2 (N-terminus assumed; SMILES CCCC[C@H](NC(=O)[C@@H](NC(=O)[C@H](CC(=O)O)NC(=O)[C@H](CCC(N)=O)NC(=O)[C@H](CC(C)C)NC(=O)[C@H](CC(C)C)NC(=O)[C@H](CCCN)NC(=O)[C@H](CCCNC(=N)N)NC(=O)[C@H](C)NC(=O)[C@H](CO)NC(=O)[C@H](CC(C)C)NC(=O)[C@H](CCC(N)=O)NC(=O)[C@H](CC)NC(=O)[C@H](CC(C)C)NC(=O)[C@@H](NC(=O)[C@H](CCCN)NC(=O)[C@H](CCCNC(=N)N)NC(=O)[C@H](Cc1ccc(O)cc1)NC(=O)[C@H](CO)NC(=O)[C@H](CC(N)=O)NC(=O)[C@@H](NC(=O)[C@H](Cc1ccccc1)NC(=O)[C@@H](NC(=O)[C@H](C)NC(=O)[C@H](CC(=O)O)NC(=O)[C@@H](C)NC(=O)[C@H](Cc1ccc(O)cc1)NC)[C@@H](C)CC)[C@@H](C)O)C(C)C)[C@@H](C)CC)C(=O)N[C@@H](CO)C(=O)N[C@@H](CCCNC(=N)N)C(=O)NCCCC(N)=O, also called Peptide 25501) [P-25501 [N-Me-Tyr^1, D-Ala^2, Orn^12, Abu^15, Orn^21, Nle^27, Gab^30]hGHRH(1-30)NH2]
2.79 | [NMeY][dA]DAI[Phe(F5)]TNSYR[Orn]VL[Abu]QLSAR[Orn]LLQDI[Nle]SR[GABA]-NHMe (also called Peptide 27414) [P-27414 [N-Me-Tyr^1, D-Ala^2, Fpa5^6, Orn^12, Abu^15, Orn^21, Nle^27, Gab^30]hGHRH(1-30)NH-CH3]
8.37 | [NMeY][dA]DAIFTQSYR[Orn]VL[Abu]QLSAR[Orn]LLQDI[Nle]DR-NHEt (also called Peptide 28420) [P-28420 [N-Me-Tyr^1, D-Ala^2, Gln^8, Orn^12, Abu^15, Orn^21, Nle^27, Asp^28]hGHRH(1-29)NH-CH2-CH3]
1.43 | [NMeY][dA]DAI[Phe(F5)]TNSYR[Orn]VL[Abu]QLSAR[Orn]LLQDI[Nle]D[Agmatine] (also called Peptide 20359) [P-20359 [N-Me-Tyr^1, D-Ala^2, Fpa5^6, Orn^12, Abu^15, Orn^21, Nle^27, Asp^28, Agm^29]hGHRH(1-29)NH2]
1.3 | [Desaminotyrosyl][dA]DAIFTNSYR[Orn]VL[Abu]QLSAR[Orn]LLQDI[Nle]DR-NHMe (SMILES CCCC[C@H](NC(=O)[C@@H](NC(=O)[C@H](CC(=O)O)NC(=O)[C@H](CCC(N)=O)NC(=O)[C@H](CC(C)C)NC(=O)[C@H](CC(C)C)NC(=O)[C@H](CCCN)NC(=O)[C@H](CCCNC(=N)N)NC(=O)[C@H](C)NC(=O)[C@H](CO)NC(=O)[C@H](CC(C)C)NC(=O)[C@H](CCC(N)=O)NC(=O)[C@H](CC)NC(=O)[C@H](CC(C)C)NC(=O)[C@@H](NC(=O)[C@H](CCCN)NC(=O)[C@H](CCCNC(=N)N)NC(=O)[C@H](Cc1ccc(O)cc1)NC(=O)[C@H](CO)NC(=O)[C@H](CC(N)=O)NC(=O)[C@@H](NC(=O)[C@H](Cc1ccccc1)NC(=O)[C@@H](NC(=O)[C@H](C)NC(=O)[C@H](CC(=O)O)NC(=O)[C@@H](C)NC(=O)CCc1ccc(O)cc1)[C@@H](C)CC)[C@@H](C)O)C(C)C)[C@@H](C)CC)C(=O)N[C@@H](CC(=O)O)C(=O)N[C@@H](CCCNC(=N)N)C(=O)NC) [P-27400 [Dat^1, D-Ala^2, Orn^12, Abu^15, Orn^21, Nle^27, Asp^28]hGHRH(1-29)NH-CH3]
